This is an account of results in the Immune Epitope Database (IEDB).

A value given as a limit tells only on which side of the number the result lay.

For test [1], the target named is HLA-A*02:01. The test is described as follows: IEDB peptide-MHC binding, purified MHC/competitive/fluorescence; filed as Kd, often an IC50 or EC50 that approximates it; ≥ and ≤ were set here for values at or beyond the usual limits of such assays.
The next test concerns the target HLA-A*02:03. The description is as above.
Another test has as its target HLA-A*02:11. The description is as above.
The next test addresses HLA-A*02:19. The description is as above.
The target in another test is HLA-A*69:01. The test is described as above.
A further test deals with HLA-A*02:16. The test is described as above.
For test [2], the target named is HLA-A*03:01. The test is described as above.
The target of a further test is HLA-A*23:01. Described as above.
The next test concerns the target HLA-A*24:03. Described as above.
For another test, the target named is HLA-A*26:01. The test is described as above.
The target of a further test is HLA-A*29:02. The test is described as above.
The target of test [3] is HLA-B*15:01. Described as above.
Another test concerns the target HLA-B*18:01. The test is described as above.
The next test addresses HLA-B*27:03. The description is as above.
The next test addresses HLA-B*39:01. Described as above.
Test [4] concerns the target HLA-B*46:01. The test is described as above.
Test [5] has as its target HLA-B*51:01. Described as above.
Test [6] addresses HLA-B*57:01. The description is as above.
The target of the next test is HLA-A*02:12. Described as above.
The target of test [7] is HLA-A*31:01. The description is as above. Particulars: source organism: Entamoeba histolytica HM-1:IMSS.
A further test addresses HLA-A*68:02. The description is as above.
The target in test [8] is HLA-B*15:17. The test is described as above. The following applies: source organism: Burkholderia pseudomallei K96243.
In the next test the target is HLA-A*01:01. The test can be described thus: IEDB peptide-MHC binding, purified MHC/direct/fluorescence; filed as Kd, often an IC50 or EC50 that approximates it; ≥ and ≤ were set here for values at or beyond the usual limits of such assays. Particulars: source organism: Mycobacterium tuberculosis.
The target in test [9] is HLA-A*02:01. The test is described as above. The following applies: source organism: Mycobacterium tuberculosis.
Test [10] addresses HLA-A*03:01. Described as above. The following applies: source organism: Mycobacterium tuberculosis.
The target of test [11] is HLA-A*31:01. The description is as above. Particulars: source organism: Mycobacterium tuberculosis.
Test [12] addresses HLA-B*15:01. Described as above. Particulars: source organism: Mycobacterium tuberculosis.
The target of the next test is HLA-B*15:09. The test is described as above. The following applies: source organism: Mycobacterium tuberculosis str. Haarlem.
Test [13] has as its target HLA-B*15:17. The test is described as above. Particulars: source organism: Mycobacterium tuberculosis.
The target of the next test is HLA-B*27:05. The description is as above. Particulars: source organism: Mycobacterium tuberculosis.
Another test has as its target HLA-B*40:01. The test is described as above. Particulars: source organism: Mycobacterium tuberculosis.
The target of test [14] is HLA-B*46:01. The test is described as above. The following applies: source organism: Mycobacterium tuberculosis.
A further test concerns the target HLA-B*48:01. The test is described as above. Particulars: source organism: Mycobacterium tuberculosis.
Test [15] concerns the target HLA-B*51:01. The description is as above. Particulars: source organism: Mycobacterium tuberculosis.
The target of test [16] is HLA-B*57:01. Described as above. Particulars: source organism: Mycobacterium tuberculosis.
In a further test the target is HLA-B*58:01. The test is described as above. Particulars: source organism: Mycobacterium tuberculosis.
Another test addresses HLA-A*11:01. The test is described as follows: IEDB peptide-MHC binding, purified MHC/competitive/fluorescence; filed as Kd, often an IC50 or EC50 that approximates it; ≥ and ≤ were set here for values at or beyond the usual limits of such assays. Particulars: source organism: Mycobacterium tuberculosis variant bovis BCG str. Pasteur 1173P2.
The next test addresses HLA-A*30:01. The test is described as above. The following applies: source organism: Mycobacterium tuberculosis variant bovis BCG str. Pasteur 1173P2.
The next test has as its target HLA-B*08:01. The test is described as above. The following applies: source organism: Mycobacterium tuberculosis variant bovis BCG str. Pasteur 1173P2.
[17] abbreviates: source organism: Human immunodeficiency virus 1.
Where [18] appears, read: source organism: Cryptosporidium parvum Iowa II.
Where [19] appears, read: source organism: Entamoeba histolytica HM-1:IMSS.
Setting [20] is: source organism: Burkholderia pseudomallei K96243.
[21] abbreviates: source organism: Mycobacterium tuberculosis variant bovis BCG str. Pasteur 1173P2.

Usually Kd stands for the equilibrium constant for the complex coming apart. The low end stands for higher affinity, the high end for lower affinity. GLADQLIHM: the Kd with HLA-A*02:01 [1] (setting [17]) is 0.0837 µM; in the test with HLA-A*02:03 (setting [17]), 0.0024 µM; with HLA-A*02:11 (setting [17]) it was 0.0008 µM; with HLA-A*02:19 (setting [17]), 0.155 µM; in the test with HLA-A*69:01 (setting [17]) it was at least 20 µM.
With LTAPCDIYV, the Kd is at least 20 µM with HLA-A*02:01 [1] (setting [18]); at least 20 µM with HLA-A*02:11 (setting [18]); 0.0005 µM in the test with HLA-A*02:16 (setting [18]); at least 20 µM in the test with HLA-A*02:19 (setting [18]); at least 20 µM in the test with HLA-A*03:01 [2] (setting [18]); at least 20 µM with HLA-A*23:01 (setting [18]). For the same sequence, the Kd with HLA-A*24:03 (setting [18]), with HLA-A*26:01 (setting [18]), with HLA-A*29:02 (setting [18]), with HLA-B*15:01 [3] (setting [18]), with HLA-B*18:01 (setting [18]) and with HLA-B*27:03 (setting [18]) was at least 20 µM in each case. Moreover, the Kd with HLA-B*39:01 (setting [18]), with HLA-B*46:01 [4] (setting [18]), with HLA-B*51:01 [5] (setting [18]) and with HLA-B*57:01 [6] (setting [18]) was at least 20 µM in each case.
Turning to RSLVCLAPK, the Kd with HLA-A*02:01 [1] (setting [19]), with HLA-A*02:03 (setting [19]), in the test with HLA-A*02:11 (setting [19]), with HLA-A*02:12 (setting [19]), with HLA-A*02:16 (setting [19]) and with HLA-A*02:19 (setting [19]) was at least 20 µM throughout. For the same sequence, the Kd is at least 20 µM in the test with HLA-A*23:01 (setting [19]); at least 20 µM with HLA-A*24:03 (setting [19]); at least 20 µM with HLA-A*26:01 (setting [19]); at least 20 µM with HLA-A*29:02 (setting [19]); 0.0465 µM with HLA-A*31:01 [7]; at least 20 µM with HLA-A*68:02 (setting [19]). Moreover, the Kd with HLA-A*69:01 (setting [19]), with HLA-B*15:01 [3] (setting [19]), with HLA-B*18:01 (setting [19]), with HLA-B*27:03 (setting [19]), with HLA-B*39:01 (setting [19]) and with HLA-B*46:01 [4] (setting [19]) was at least 20 µM each time. The Kd with HLA-B*51:01 [5] (setting [19]) and in the test with HLA-B*57:01 [6] (setting [19]) was at least 20 µM in each case.
In the case of SELTVSPPD, the Kd with HLA-A*02:01 [1] (setting [20]), with HLA-A*02:03 (setting [20]), with HLA-A*02:12 (setting [20]), with HLA-A*02:16 (setting [20]), with HLA-A*02:19 (setting [20]) and with HLA-A*03:01 [2] (setting [20]) was at least 20 µM each time. Further, the Kd with HLA-A*24:03 (setting [20]), with HLA-A*26:01 (setting [20]), in the test with HLA-A*68:02 (setting [20]), in the test with HLA-A*69:01 (setting [20]), with HLA-B*15:01 [3] (setting [20]) and in the test with HLA-B*15:17 [8] was at least 20 µM each time. Also, the Kd is 0.845 µM with HLA-B*18:01 (setting [20]); at least 20 µM with HLA-B*27:03 (setting [20]); at least 20 µM in the test with HLA-B*39:01 (setting [20]); at least 20 µM with HLA-B*46:01 [4] (setting [20]); at least 20 µM with HLA-B*51:01 [5] (setting [20]); at least 20 µM with HLA-B*57:01 [6] (setting [20]).
With YPARVKCAL, the Kd was at least 20 µM with HLA-A*01:01; at least 20 µM in the test with HLA-A*02:01 [9]; at least 20 µM with HLA-A*03:01 [10]; at least 20 µM with HLA-A*31:01 [11]; at least 20 µM with HLA-B*15:01 [12]; 1.09 µM in the test with HLA-B*15:09. Also, the Kd with HLA-B*15:17 [13], with HLA-B*27:05, in the test with HLA-B*40:01, with HLA-B*46:01 [14], with HLA-B*48:01 and in the test with HLA-B*51:01 [15] was at least 20 µM each time. The equilibrium dissociation constant (Kd) in the test with HLA-B*57:01 [16] was at least 20 µM; with HLA-B*58:01 it was at least 20 µM; in the test with HLA-A*11:01, at least 20 µM; in the test with HLA-A*30:01, 2.54 µM; with HLA-A*69:01 (setting [21]), at least 20 µM; in the test with HLA-B*08:01 it was 0.097 µM. In the test with HLA-B*39:01 (setting [21]), this sequence returned a Kd of 0.0229 µM.
